The DeepSol protein solubility set

experiment: soluble on expression in E. coli; label from the status in PepcDB or PDB records

Soluble on expression in E. coli, not soluble:
MGSDKIHHHHHHMANNIQGFVMIGAQAIVFSITNLRTLKTIERGRYPVAIGDDFYAEHEILPDTVDAIVQAFDAINQIFKDYGVPTVNVFASTSWAEADNAEFVRDQLYTRTGWLIKTTSLSEEAFFRTQAIMVKFPQFKSITQKGTVLIDISSGSVELTTFSNGVFGFSRNLSLGPLRVYEIMSDVQRSVTNYVEVMRDYIDSRLLDFMRLLPQGVEYTNMILMGSNLSIFQNIIPEGKHQVETDRPGFDLLYDEVTKASDQYLADTYDLTSDQTSLVLPTVLLVYRLVETLNSQSIWISDLKAIDGIEVNAAHEGGFKKLGFDPNEEIVISANNLAERYQVDEAHMQATRTVALQLFDRLKKLHGMGKRERLLLEVAATVSDIGSYIETHKHYAHSNYIIKASEIMGLNDLEVTMVATITRFHSSITPQSDLKNFPTMSTENRLVVAKLSALLRVADSLDASRQQKIQQLRVSVKPNEVLLTARADDDIELERWTLARKGKFFSEVFGLGLELKGRNIL, MGSDKIHHHHHHMAQMTPSQEPQSAAEYDDRTTAAVKSVLIEIGQILGSFKGKFAIIGGAVPWLLLANEDMPHVGTLDVDVGLDAEALGDGEYATLVGALQGHGYAQREGLRRFQLVRQVPARDGGEAIDVVVDFLMPRDAEIVRNNPPLISDFAVQRADGADLAMRFYQLVAVAGSMPDGGTNRVEIAVCSIPALLAMKGHALAGRYKQKDAYDIYYCVRNYPAGIEALAQECRPLLGHASGERGFLHIADKFDAFDGYGPTCVRRFVEDTQALGDRTPDQWQQDAFGQIDALLRAMALRG, MGSDKIHHHHHHMASISIRCPSCSATEGVVRNGKSTAGHQRYLCSHCRKTWQLQFTYTASQPGTHQKIIDMAMNGVGCRASARIMGVGLYTVLRHLKNSAESVTSRIQPGSDVIVCAEMDEHWGYVGAKSRQRWLFYAYDRIRRTVVAHVFGERTLATLERLLSLLSAFEVVVWMTDGCPLYESRLKGKLHVISKRYTQRIERHNLNLRQHLARLVRKSLSFSKSVELHDKAIGHYLNIKHYQ, MGSDKIHHHHHHMASYSLVESNSFGSENWCLKLQPSYKHGLLTGLSNGEIRLLDWSTGKSVQKIKASETAINDMKVIGSDFSAGHLVSSASIDAVKVFDIRTNDRIAQIQNEANSPFISLDSRHGLLACGTELQGIDAAVYIYDIRKWDTPLRSLIDSHHDDVTCIKFHPSDVNILLSGSTDGYTNIYDLKQDEEEDALHQVINYASIHSCGWLSPKRIFTLSHMETFAIHELNDKSDELKEPQPLDFGDVREIWNCDYVVDIYPGLIATGKTQENCGELCLLPFKDEKVDTENGIVIPHAHGDEVVRDIFIPAQHSNMLYSCGEDGCVKIWENKQGPLDIPENFWDYSKKMNVLGDDDREGSINLDEPLIIQKESVSTRPRKEKHKKAKKHSMKSRFKPY, MGSDKIHHHHHHMATVLIVGRPNVGKSTLFNKLVKKKKAIVEDEEGVTRDPVQDTVEWYGKTFKLVDTCGVFDNPQDIISQKMKEVTLNMIREADLVLFVVDGKRGITKEDESLADFLRKSTVDTILVANKAENLREFEREVKPELYSLGFGEPIPVSAEHNINLDTLLETIIKKLEEKGLDLESKPEITDAIKVAIVGRPNVGKSTLFNAILNKERALVSPIPGTTRDPVDDEVFIDGRKYVFVDTAGLRRKSRVEPRTVEKYSNYRVVDSIEKADVVVIVLDATQGITRQDQRIAGLVERRGRASVVVFNKWDLVEHREKRYDEFTKLFREKLYFIDYSPLIFTSADKGWNIDRVIDAINLAYASYTTKVPSSAINSALQKVLAFTNLPRGLKIFFGLQVDIKPPTFLFFVNSIEKVKNPQKIFLRKLIRDYVFPFEGSPIFLKFKRSR, MGSDKIHHHHHHMAVSSLAGLGLRREMLAEFSQSVPAQIDFFEVAPENWMALGGKYGKQFRALTERHAFFCHGLSLSIGSSAPLDIDFIKGIKAFLDLHGIAVYSEHLSYCSGSGHLYDLMPMPFTPEAVRHIAGRVKQVEDIIERPLILENISFYAAPGAQMTELEFVLAVLEEADCQLLLDVNNIYVNSINHNYDAAAYLAAMPTERIRYLHVAGHYVEAPDLIVDTHGADIVDPVWQLLCDCYALHGPLPTLLERDFNIPPIGELLQEIDRIRDYQAAAIRTSRRAG, MGSDKIHHHHHHMAVTDKERKLAATLSDPVLWGQAYLYNRDGSGRDYWPHQVEDLRCPAKNIIHLDGRDVGKSIVLSTDALHYAFTTRGGQGLVAAPHQGHLDTIIEEIEFQLDTNPDLMNSIALTKYGKPKIHRKPYFRLEFTNGSVLYFRPAGAYGDAFRSLHVGRVWVDEGAWLTERAWKALRQCLKAGGTLRIYSTPNGLRDTTYYRLTSSEQFHVFRWPSWLNPLWTEDREAELLEFYGGRDSSGWQHEVAGEHGKPSYGAFNVEQFNLCRQDLLEYQKIVITDSELRDCDTEEAAHDRLEMLLNLTPRSGQFWVGGDLGYTNDPTEIVVFQEMEVGERTLLKMILRVHLEHVSYPHIAQIIALLERYYTPAGIGVDNGGNGLAVVQELLTLDKYKGLELEGRLKGYDFGGMTRLAVRDGKEIKKRTKELMTSLINGALQRKQLIFPSDDLEVEDQFTTHTYTLRDGKIIYSKGNDHIIDAVRCAMLIREEGNLDPVGEEVVSLKPVLTNPVFI, MGSDKIHHHHHHMAYLDNIAVFVRVVELGNLSAAGRDMRISPAVASNRIKELEKHLGVRLFNRTTRQLMPTEHGTVFYSGAKQVLEAITEAEAAVSALSGQPRGTIRVTAPLGLGRRLVASGIPDFHDKYPDIEVRLRLSDHNVDIMKEGIDVAFRLGIIEDSSLRMRGIMECERVLVAAPKYLEARGEPAEPQELIGKKHDCLMLRYSGAREYVWTLQTPTGPQKFEVHGPYDTDDGDVLTGWALSGRGIINKPRFEVEPFIRDRRLQVILANTPPTPVQFAAVYPHKKLQDPKVRLLLDFMAERCQRLIKDILAGK, MGSDKIHHHHHHMAYNDSTKQYQRMLASYTRTGIETAIPGTKEEGIMRYRTMIYTIVNESLSTSYPLTRQLLTAQEWDDTVHRYFSTHACTSPYLWRMPLEFYEYIQEEQSALLIKYPCLSDLLLFEWVEIEVFMMEDEEVLHKTEGAVETDALVLNPACAVQYFQYPVYAKRAAEITPADAAHYFMLTHRNPETGNVAFLEIAPMFARMFEWLTEEAMSVDQLISRFTEESQLALAADSRINIVSFFKNCLSKRIILGFN, MGSDKIHHHHHHMAYRNGTYVAFHANGTNRPGGNSDIDYYNLLKAWVGKDDDHFTMNNSHDKASAVRDSSKKETLRASLLERLRNSKNMVLIIGDTTLLDDDWVPFEISSAVDTYEIPIIAVYTQYSTPIRNPAALRSRWPDALATRIDSQKAKVIHIPFKKAALNDAISQFSHNNMPKGPLSFYSDEAYESFGIDG, MGSDKIHHHHHHMCASVLSRCGVALSQIQPIRCHLCQQTPCLTQCAEHNDTLNQHAAEYVKLVLAIGHHEPLYVDAYYGPAQWQAEASMLPLPELASRCASLVNQLANAGKDLSCQFLRDRHGFLSKQLGAVAAYLKRLMGQEFSFDVESRLLYDTQAPKLNLSDFSEVLARIDSLLPGEGSLTKRFDTYRSQFIVPADRVPQVFTAAVEQARLLTKRHLALPEGEQFRVEFVKDQIWTAYNWYQGDYASLIQLNQDHPLHLDRALELASHEGYPGHHVFNLLQEHELVKGLGWWEYAIYPLYSPISFLSEGSANYGLSLLMTKEERIDFEQRVLMPMAGIAGDLQHYHEVMVTYKALANLDTLVCRQLIDGEIQADEAARLLVEFALYTPEKAAQRVRFYQANRSYVLNYHHGEASVGEYVTNQVRDNAQAWEVFAALLARPRAASGIIR, MGSDKIHHHHHHMCNYNQLFENIAELVMHHSPSGAEAEINQLLLQKFAALGVEVWSDRADNIIAKIPGKNSERAVAITAHKDEIGAIVKNIGDAGKVEVRKLGGAYPWVYGEGVVDLLGDNETISGILSFGSRHVSHESPQKVQQEDTAVKWENAWIETKRTTEELEIAGIRPGTRMVIGKHRKHPVKLQDHIASYTLDNKASVAILLALAQQLKQPAMDVYLVASAKEEVGAIGALFFTQNQQLDALIALEICPLSEEYPVKDSENPVLLIQDAYGIYDEGLNGELRQCAKQLNMPVQLTTLSGFGSDASIAMKFGHVGRAACLAFPTQNTHGYEIAHLGAISNCINLLKAFCETEF
